According to publication PMC7948472:
Like-named read-outs stand apart in the source and are kept apart here. Where no end group is shown, it is not given here. Me3 = trimethyl-lysine

Key:
[1] = molecular target: F9, C9, E6, and D6; experiment: SPR; Biacore T200; each Fab immobilised on a CM5 chip by amine coupling; increasing concentrations of free peptide injected; running buffer PBS with 0.005% Tween 20; global fit, steady-state analysis where dissociation was fast
[2] = molecular target: Fab E10 (rabbit); experiment: SPR; Biacore T200; each Fab immobilised on a CM5 chip by amine coupling; peptides injected at increasing concentrations; running buffer PBS with 0.005% Tween 20; global fitting of the curves, or steady-state analysis where kinetic parameters could not be determined (fast dissociation, low affinity)
[3] = molecular target: Fab D6 (rabbit); experiment: as above
[4] = molecular target: Fab C9 (rabbit); experiment: as above
[5] = molecular target: Fab E10 (rabbit); experiment: as above; remark: listed apart in the source
[6] = molecular target: Fab D6 (rabbit); experiment: as above; remark: listed apart in the source
[7] = molecular target: Fab C9 (rabbit); experiment: as above; remark: listed apart in the source
[8] = molecular target: D6 Fab (rabbit); experiment: SPR; Biacore T200; each Fab immobilised on a CM5 chip by amine coupling; increasing concentrations of free peptide injected; running buffer PBS with 0.005% Tween 20; global fit, steady-state analysis where dissociation was fast
[9] = molecular target: F9 Fab (rabbit); experiment: as above
[10] = molecular target: E6 Fab (rabbit); experiment: as above
[11] = molecular target: C9 Fab (rabbit); experiment: as above
[12] = molecular target: Fab F9 (rabbit); experiment: SPR; Biacore T200; each Fab immobilised on a CM5 chip by amine coupling; peptides injected at increasing concentrations; running buffer PBS with 0.005% Tween 20; global fitting of the curves, or steady-state analysis where kinetic parameters could not be determined (fast dissociation, low affinity)
[13] = molecular target: Fab E6 (rabbit); experiment: as above
Chain of Fab E6 (rabbit) (heavy, as listed by the source, chain 1 of 2): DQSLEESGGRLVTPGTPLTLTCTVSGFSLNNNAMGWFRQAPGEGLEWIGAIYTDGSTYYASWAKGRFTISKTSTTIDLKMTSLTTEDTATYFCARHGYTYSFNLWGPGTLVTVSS
Chain of Fab E6 (rabbit) (light, as listed by the source, chain 2 of 2): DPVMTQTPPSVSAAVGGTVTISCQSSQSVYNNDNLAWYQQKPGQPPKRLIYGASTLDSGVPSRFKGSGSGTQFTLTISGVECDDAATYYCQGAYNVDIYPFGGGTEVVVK

Chain of Fab C9 (rabbit) (heavy, as listed by the source, chain 1 of 2): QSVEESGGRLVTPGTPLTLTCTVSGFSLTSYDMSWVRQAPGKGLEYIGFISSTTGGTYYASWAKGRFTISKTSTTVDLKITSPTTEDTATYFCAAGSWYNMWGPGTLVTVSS
Chain of Fab C9 (rabbit) (light, as listed by the source, chain 2 of 2): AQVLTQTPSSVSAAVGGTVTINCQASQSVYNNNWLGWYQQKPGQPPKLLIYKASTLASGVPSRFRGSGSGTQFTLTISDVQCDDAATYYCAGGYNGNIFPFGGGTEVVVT
Chain of Fab D6 (rabbit) (heavy, as listed by the source, chain 1 of 2): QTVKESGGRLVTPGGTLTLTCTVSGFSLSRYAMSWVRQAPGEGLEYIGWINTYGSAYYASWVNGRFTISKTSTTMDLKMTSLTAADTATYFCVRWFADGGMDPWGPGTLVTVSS
Chain of Fab D6 (rabbit) (light, as listed by the source, chain 2 of 2): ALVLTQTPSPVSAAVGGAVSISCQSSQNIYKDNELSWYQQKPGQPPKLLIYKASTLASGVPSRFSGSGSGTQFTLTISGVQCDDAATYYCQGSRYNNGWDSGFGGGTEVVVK
Chain of Fab F9 (rabbit) (heavy, as listed by the source, chain 1 of 2): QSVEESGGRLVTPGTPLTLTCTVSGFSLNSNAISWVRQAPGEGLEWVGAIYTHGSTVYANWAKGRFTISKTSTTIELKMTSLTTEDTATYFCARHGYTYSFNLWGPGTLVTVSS
Chain of Fab F9 (rabbit) (light, as listed by the source, chain 2 of 2): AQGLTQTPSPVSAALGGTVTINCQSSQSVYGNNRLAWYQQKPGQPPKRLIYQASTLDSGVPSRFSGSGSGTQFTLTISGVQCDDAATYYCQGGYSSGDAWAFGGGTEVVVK

Binder	Kd [1]	Kd [2]	Kd [3]	Kd [4]	Kd [5]	Kd [6]	Kd [7]	Kd [8]	Kd [9]	Kd [10]	fold difference in association rate constant against F9 [10]	Kd [11]	koff [12]	kon [12]	koff [3]	kon [3]	koff [4]	kon [4]	koff [13]	kon [13]
NPIFEKFGKGGTYP [MAP3K2 peptide, …]	0.3 µM	40 µM	140 µM	440 µM	36 µM	180 µM	690 µM													
NPIFEKFGK(Me3)GGTYP-NH2 [Methylated MAP3K2 peptide in which the C terminus was amidated]			0.0591 µM	0.0111 µM																
NPIFEKFGK(Me3)GGTYP [Methylated MAP3K2 peptide, …(me3)GGTYP]		37 µM			39 µM			0.054 µM	0.3 µM	0.0009 µM	> 100 fold	0.014 µM	0.098 s⁻¹	330000 M⁻¹ s⁻¹	0.096 s⁻¹	1.9e+06 M⁻¹ s⁻¹	0.006 s⁻¹	480000 M⁻¹ s⁻¹	0.0029 s⁻¹	3.4e+06 M⁻¹ s⁻¹
